Among the data in a protein production outcome set (Wang et al. 2014) are protein production values, retold here.

This series is described as follows: label from the status in PepcDB records.
Consider “MKEIVTIENVSFNYHNRAVFKDFNLSIQEGDFLCVLGESGSGKSTLLGLILGLLKPSLGSVKIFNETLSNNAFLRQKIGYIAQGNSLFSHLNAMQNMTFCLNLQGINKQAAQKEAKALALKMGLDESLMDKFPNELSGGQAQRVGIIRGIIHRPELILLDEPFSALDSFNRKNLQDLIKEIHQNSHATFIMVTHDESEAQKLATKTLEIKALKQEQ”, for which the protein production entry was “failed”. Under “MDKPILKDSMKLFEALGTIKSRSMFGGFGLFADETMFALVVNNQLHIRADQQTSSDFETQGLKPYVYKKRGFPVVTKYYAISSELWESSDRLIEVAKKSLENAKL” stands “not failed”; under “MVKLELLKQSDASALLKFELNNKEWFESFIEARDDDFFDDNGIKEHVNFCLAEYKKGLLYPTLIKDEDGQILGRANLYNIDRVKNSGSIGYRIGEEFTSQGLATLATKELLEIGKNRYELSSINAVASTDNAASQKVLIKNGFKEVGFKPEFAFVDGEIIDCYEYRCLIQQLTPVM”, “failed”; under “MTEEAAAQQTPVPGMTGPRRAAVGFIFITIALDMLSLGMILPILPKLIESFSDDNTANAARIYGLFGTAWALMQLFASPILGGLSDRFGRRPVILLSNLGLGLDYVLMALAPSLWWLFVGRVISGITSASISTSFAYIADVTPAEKRAAVFGMVGAAFGLGFTFGPAIGGLLGGVDPRLPFWVAAALSLANTLYGLFVLPESLPRDRRSPFRWKSANPIGAVRLLSSNARLAALAVVEFCAEVAHVALPATFVLYTGYRYAWDQTTIGLALAFVGVCTTIVQGGLVGPAVKLLGERNAQIIGYGGGALGFLIYALAPSGTLFWIGIPVMTLWGIAGPATSGMMTRLVSPSQQGQLQGATTSVKSVAELIGPFLFTMIFAYFIDAGAPLQLPGAPFLLAGALLVVSVVIVAFASPAADSKQAPQAAPES”, “failed”.

Regarding “MIPMEELKVKKITNGTVIDHIDAGKALMVFKVLNVPKETSVMIAINVPSKKKGKKDILKIEGIELKKEDVDKISLISPDVTINIIRNGKVVEKLKPQIPDEIEGTLKCTNPNCITNKEKVRGKFKIESKNPLKIRCYYCEKFLNEVIFE”, the protein production entry is reported as “not failed”.

Take “MFKRIGLISIALSLNTISFTSEACSALVFNKNKPATVAVNLDWKYREGAFVIHPRNAMMVSSVDYHSMHPLIWKSQYGSVIFHGGNRFKAGPSADGMNEKGLTASILMLDSSIYPSNSELPALKTTEWVQYILDNFQTVQEVIDDSSNYQLVADTYRGITMNVHLMVSDAEGKSAVFEYLDGKLVIHTQDNLTTPVLTNTDYKLSLALLEEYQDHGGSKALPGGYDSKSRFVRAAHYLKKLPSFIAKEEHIAYAFNGLNVVTQAPGTSSPTQLSMVFDIPTKTIYFRSINEAALRVIPMDSIDFDYLYQPIALNVYQHLSGDVTDKFQPMIG”: the protein production entry is given as “failed”. Under “MTEDQAFWNAFAPDYAAAEQASRLPIAHDVIAWLRSTQLLPAHSAVDLAAGTGRYAVQMMPWVQELTLIDWSSAMLAFAKERMHQQADTKAQFIVADWRKLHKPLNADMLFVSQLPTLKPQDLKMLMNWASQTVVLNFQTAQSDALLEQAASLLGLQLPPVYQADPARMISFKVWLTAQRIPFQSHSLTYEIEEQTTLSDLLPDLATPIGLKTAASLAKAITGHENTHVQVTDRLTYTYTQLVWHVLEHHHHHH” stands “failed”; under “MRKKKRLISLLLAVFIAVACLPAGIARADKASSIELKFDRNKGEVGDILIGTVRINNIKNFAGFQVNIVYDPKVLMAVDPETGKEFTSSTFPPGRTVLKNNAYGPIQIADNDPEKGILNFALAYSYIAGYKETGVAEESGIIAKIGFKILQKKSTAVKFQDTLSMPGAISGTQLFDWDGEVITGYEVIQPDVLSLGDEPYETPGTDIPISDNPAATPSSTPSVTPSPEVKPTQTPSPAENSAKVELEPVLDNATGEAKAAIDEEKLNKALDEAKKSEDDKLVELNIKKVENADAYIQQLPAKFLIKSDAEYKLRIATEQGIIEVPANMLNTADISKLVKNDSVVEFVIRKVKVDELGAELKEKIGNRPVIDISVVVDGKKVEWSNYKAKVKISIPYKPDAKELENHEHIVVLHIDDAGKAVSVPSGKYEPSLGVVTFETNHLSKYAVSYVYKTFADIGSYAWAKKQIEVLASKGVINGTSDTTFTPQADITRADFMILLVKALGLTAEVTSNFDDVSEKDYYYEYVGIAKELGITTGVGNNKFNPKAKITRQDMMVLTTNALRIAGKISSTGTRADVERFSDKDQIASYAVEGVATLVKEGIVVGSGDIINPRGNASRAELAAIIYKIYYK”, “not failed”. As for “MTALTPLQRLWLTETVRLREEHAGPLEDQEANRLARNQGGDLATRIQNRALWLAQRDGLHSALLHWHQGARMALLALSVLAVISGAGLAFSALGSTQQPVNVFWALGSLLGINLILLLSWLAGLLFAGEHGASLGRLWLWLSEKFSRDAKAAQLPPALLLLLQRRKLNRWALGSLINGLWCLALFSAVVMLLLLLTTHRYSFVWESTLLGSDAFVAITNTLSALPRGLGFGAPSVASIQASTRDVYNTELIRQSWAIWLVVLVTIYGVLPRLLLMLFCRWRWKHGQARLQLDLNLPGYAQLRERLMPSSERLGVNDAAPEQLHRVEGGVSAQDSSGALLVAIELDNQRPWPPQLPESIKDAGILDSRESRSRLLEQMSRFPPARLVIACDPRRSPDRGSLGLIAELARNASATRVWLLQAPPGQALDADRLGDWHSALHKLQLPFADCAPLDWLENGHD”, the protein production result was “failed”. As for “MVDLVAKLKRGAPMLALLIVSTVLAGCSSSTAIKGSKDEGLRLARLLRDQGRVEAATEVYARLDSRDALKGAEMLEYASVAALARSPQQTLELYGRARQALGGDTNKMTPGEALAVCLGMGRTQLALGRNAMAQTDFACALKAQPNDAGALNGMGVVMDASGKHAEARQLFEKALQVNPADVAALNNLALSWLASGNTDKAISLLRSVDESNATSRLNLALAYLSGGRDDEARSALATIAQPQRIDGLMDELNQRLQQMQKDKSRGEALLLSSRQRLQLSAPE”, the protein production entry was “failed”.

Consider “MFYPDPFDVIIIGGGHAGTEAAMAAARMGQQTLLLTHNIDTLGQMSCNPAIGGIGKGHLVKEVDALGGLMAKAIDQAGIQFRILNASKGPAVRATRAQADRVLYRQAVRTALENQPNLMIFQQAVEDLIVENDRVVGAVTQMGLKFRAKAVVLTVGTFLDGKIHIGLDNYSGGRAGDPPSIPLSRRLRELPLRVGRLKTGTPPRIDARTIDFSVLAQQHGDNPMPVFSFMGNASQHPQQVPCYITHTNEKTHDVIRSNLDRSPMYAGVIEGVGPRYCPSIEDKVMRFADRNQHQIFLEPEGLTSNEIYPNGISTSLPFDVQMQIVRSMQGMENAKIVRPGYAIEYDFFDPRDLKPTLESKFIQGLFFAGQINGTTGYEEAAAQGLLAGLNAARLSDDKEGWAPARSQAYLGVLVDDLCTLGTKEPYRMFTSRAEYRLMLREDNADLRLTEIGRELGLVDDERWARFNEKLENIERERQRLKSTWVTPSAEAAAEVNAHLTAPLSREASGEDLLRRPEMTYEKLTTLTPFAPALTDEQAAEQVEIQVKYEGYIARQQDEIEKQLRNENTLLPATLDYRQVSGLSNEVIAKLNDHKPASIGQASRISGVTPAAISILLVWLKKQGMLRRSA”, for which the protein production result is on record as “not failed”. In the case of “MTTRLLQLTRPHYRLLSLPLQKPFNIKRQMSAANPSPFGNYLNTITKSLQQNLQTCFHFQAKEIDIIESPSQFYDLLKTKILNSQNRIFIASLYLGKSETELVDCISQALTKNPKLKVSFLLDGLRGTRELPSACSATLLSSLVAKYGSERVDCRLYKTPAYHGWKKVLVPKRFNEGLGLQHMKIYGFDNEVILSGANLSNDYFTNRQDRYYLFKSRNFSNYYFKLHQLISSFSYQIIKPMVDGSINIIWPDSNPTVEPTKNKRLFLREASQLLDGFLKSSKQSLPITAVGQFSTLVYPISQFTPLFPKYNDKSTEKRTILSLLSTITSNAISWTFTAGYFNILPDIKAKLLATPVAEANVITASPFANGFYQSKGVSSNLPGAYLYLSKKFLQDVCRYRQDHAITLREWQRGVVNKPNGWSYHAKGIWLSARDKNDANNWKPFITVIGSSNYTRRAYSLDLESNALIITRDEELRKKMKAELDNLLQYTKPVTLEDFQSDPERHVGTGVKIATSILGKKL” it was “failed”. With “MREHLKLFSLIFSYPDEDKLGKAIALAEGIGLTEIAQTLKQVDIEALQVEYTSLFISSHPSVPCPPYQSYFEEGSVYGKASLRAAELYSKYGLNYVYESEPPDHISVELEFLSMNPELLSDFRDWFLEFAKCVEEKSEIYATFARAFRKFLEKPSKVQS”, the protein production entry was “not failed”.

In the case of “MEKSSFAAANMTIMSEPTTPTSQAHDSGASANVIATVETEIRQTARFPTRWTAISSALVVLLCVLALILVPIPFVARSPGQTVNLLSTNERGKPMIQVDGLTTRHGEGEMRMTTVSITRADSRLSMAEALVAHLRADHDVLQREAIYPPGRSPQQVDADESYMMDTSERDAAVAALRAAGQPVTEMPMVSAVSAAGPAHGKLAPGDLIEKVDGKPMASVLDVGKAVRKHTVGDTVVFVVLRNSSVKTIAVTTVSSVSDRRAPAVGVTIDTGYRYTPTITYNIPGDIVGPSAGLAMALSIYQMVAPNDLIGSLRIAGTGGISPDGNVVAIGGIQEKIAGAERDGAKIFLVPAGNCRDISGVETSMRLVKVSSLKDAIAAIQKIRAGGTGIPHC”, the protein production result is “failed”. Under “METESEQNSNSTNGSSSSGGSSRPQIAQMSLYERQAVQALQALQRQPNAAQYFHQFMLQQQLSNAQLHSLAAVQQATIAASRQASSPNTSTTQQQTTTTQASINLATTSAAQLISRSQSVSSPSATTLTQSVLLGNTTSPPLNQSQAQMYLRPQLGNLLQVNRTLGRNVPLASQLILMPNGAVAAVQQEVPSAQSPGVHADADQVQNLAVRNQQASAQGPQMQGSTQKAIPPGASPVSSLSQASSQALAVAQASSGATNQSLNLSQAGGGSGNSIPGSMGPGGGGQAHGGLGQLPSSGMGGGSCPRKGTGVVQPLPAAQTVTVSQGSQTEAESAAAKKAEADGSGQQNVGMNLTRTATPAPSQTLISSATYTQIQPHSLIQQQQQIHLQQKQVVIQQQIAIHHQQQFQHRQSQLLHTATHLQLAQQQQQQQQQQQQQQQPQATTLTAPQPPQVPPTQQVPPSQSQQQAQTLVVQPMLQSSPLSLPPDAAPKPPIPIQSKPPVAPIKPPQLGAAKMSAAQQPPPHIPVQVVGTRQPGTAQAQALGLAQLAAAVPTSRGMPGTVQSGQAHLASSPPSSQAPGALQECPPTLAPGMTLAPVQGTAHVVKGGATTSSPVVAQVPAAFYMQSVHLPGKPQTLAVKRKADSEEERDDVSTLGSMLPAKASPVAESPKVMDEKSSLGEKAESVANVNANTPSSELVALTPAPSVPPPTLAMVSRQMGDSKPPQAIVKPQILTHIIEGFVIQEGAEPFPVGCSQLLKESEKPLQTGLPTGLTENQSGGPLGVDSPSAELDKKANLLKCEYCGKYAPAEQFRGSKRFCSMTCAKRYNVSCSHQFRLKRKKMKEFQEANYARVRRRGPRRSSSDIARAKIQGKCHRGQEDSSRGSDNSSYDEALSPTSPGPLSVRAGHGERDLGNPNTAPPTPELHGINPVFLSSNPSRWSVEEVYEFIASLQGCQEIAEEFRSQEIDGQALLLLKEEHLMSAMNIKLGPALKICAKINVLKET” stands “failed”; under “SIEVRGKIKLGLLPETYEHLQPILFEFQDQYPQVELDIRNINNGFIDMFQQGLDIALHGGMLFDSDIVARKILTLDRCVVASPNYLQTHGTPATLEELSDHQCICFRWPNGNVDNLWHFQEQNVALKPKLISNNIGFIK”, “failed”; under “MSESCILFFVKYPEPGKVKTRLGEVVGNDKAAMLYRHFVQDMLQGLARLHADLHICYVPGDADLPEKFKAWLGPQHMFAAQQGLDLGERMKHAMQKAFDDGYDRVVLMGSDIPDYPCELVQKALNDLQHYDAAIGPAFDGGYYLIGFRKDSFCPDVFDGIRWGEADVYQPTVEKMRRARLEVLQLPDWNDVDTVWDLNVLYRTNKNSSFRRSSTYALLRENDALIRQYDIDLPGMAPVEKE”, “not failed”. With “MSSKGEGSSSTAEREVKKQVASVIPVTRKLVKTMAAKAIISALTPSGCGRHSDSTGDGKELKPFKKKEGSVIPKERELVKTKAAKAIFSLFRPSCDGKQSSQPSRDGDGDHDGKRVYPTRY”, the protein production result is “failed”.
